These results are taken from PMC8219681, “Inhibition of MRN activity by a telomere protein motif” (Nature Communications, 2021).

B1: Rad50 (S. cerevisiae, FLAG-tagged at the C terminus) [S. cerevisiae] / MBP-Rif2 (S. cerevisiae Rif2, wild type) [S. cerevisiae] (parent complex)
chain 1: MSAIYKLSIQGIRSFDSNDRETIEFGKPLTLIVGMNGSGKTTIIECLKYATTGDLPPNSKGGVFIHDPKITGEKDIRAQVKLAFTSANGLNMIVTRNIQLLMKKTTTTFKTLEGQLVAINNSGDRSTLSTRSLELDAQVPLYLGVPKAILEYVIFCHQEDSLWPLSEPSNLKKKFDEIFQAMKFTKALDNLKSIKKDMSVDIKLLKQSVEHLKLDKDRSKAMKLNIHQLQTKIDQYNEEVSEIESQLNEITEKSDKLFKSNQDFQKILSKVENLKNTKLSISDQVKRLSNSIDILDLSKPDLQNLLANFSKVLMDKNNQLRDLETDISSLKDRQSSLQSLSNSLIRRQGELEAGKETYEKNRNHLSSLKEAFQHKFQGLSNIENSDMAQVNHEMSQFKAFISQDLTDTIDQFAKDIQLKETNLSDLIKSITVDSQNLEYNKKDRSKLIHDSEELAEKLKSFKSLSTQDSLNHELENLKTYKEKLQSWESENIIPKLNQKIEEKNNEMIILENQIEKFQDRIMKTNQQADLYAKLGLIKKSINTKLDELQKITEKLQNDSRIRQVFPLTQEFQRADLEMDFQKLFINMQKNIAINNKKMHELDRRYTNALYNLNTIEKDLQDNQKSKEKVIQLLSENLPEDCTIDEYNDVLEETELSYKTALENLKMHQTTLEFNRKALEIAERDSCCYLCSRKFENESFKSKLLQELKTKTDANFEKTLKDTVQNEKEYLHSLRLLEKHIITLNSINEKIDNSQKCLEKAKEETKTSKSKLDELEVDSTKLKDEKELAESEIRPLIEKFTYLEKELKDLENSSKTISEELSIYNTSEDGIQTVDELRDQQRKMNDSLRELRKTISDLQMEKDEKVRENSRMINLIKEKELTVSEIESSLTQKQNIDDSIRSKRENINDIDSRVKELEARIISLKNKKDEAQSVLDKVKNERDIQVRNKQKTVADINRLIDRFQTIYNEVVDFEAKGFDELQTTIKELELNKAQMLELKEQLDLKSNEVNEEKRKLADSNNEEKNLKQNLELIELKSQLQHIESEISRLDVQNAEAERDKYQEESLRLRTRFEKLSSENAGKLGEMKQLQNQIDSLTHQLRTDYKDIEKNYHKEWVELQTRSFVTDDIDVYSKALDSAIMKYHGLKMQDINRIIDELWKRTYSGTDIDTIKIRSDEVSSTVKGKSYNYRVVMYKQDVELDMRGRCSAGQKVLASIIIRLALSETFGANCGVIALDEPTTNLDEENIESLAKSLHNIINMRRHQKNFQLIVITHDEKFLGHMNAAAFTDHFFKVKRDDRQKSQIEWVDINRVTY
chain 2: MEHVDSDFAPIRRSKKVVDSDKIVKAISDDLEQKNFTVLRKLNLVPIKKSVSSPKVCKPSPVKERVDHVFYQKFKSMALQELGTNYLSISYVPSLSKFLSKNLRSMKNCIVFFDKVEHIHQYAGIDRAVSETLSLVDINVVIIEMNDYLMKEGIQSSKSKECIESMGQASYSGQLDFEASEKPSNHTSDLMMMVMRKINNDESIDHIVYFKFEQLDKLSTSTIIEPSKLTEFINVLSVLEKSNNIAFKVLIYSNNVSISSLLSTSLKKKLNTKYTVFEMPILTCAQEQEYLKKMIKFTFDSGSKLLQSYNSLVTCQLNNKESNLAIFFEFLKVFPHPFTYLFNAYTEIIVQSRTFDELLDKIRNRLTIKNYPHSAYNFKKNQRLPLKLTRKVHDR

Variants of B1 are the subject of this test. Kind of test: pull-down (amylose-immobilized MBP-Rif2 bait, Western blot with anti-Rad50 antibody, quantified); three independent blots; mean with SEM; parent: 100; read off a plot.
With chain 1 K81I, the percent of parent is roughly 16 Relative value.
